In article doi:10.1101/609255 one finds stoichiometry N data, which are given here for one substance.

The assay addresses Light-Harvesting Complex II (LHCII) (spinach). In words: native gel or EMSA.

Take Light-Harvesting Complex II (LHCII): the stoichiometry N (as a rule, the number of molecules, sites or subunits per partner or assembly) is 3.
